According to IntAct's records for PubMed 20588253:

B1: Mitogen-activated protein kinase kinase kinase 2 (Homo sapiens), Q9Y2U5 (parent)
chain: MDDQQALNSIMQDLAVLHKASRPALSLQETRKAKSSSPKKQNDVRVKFEHRGEKRILQFPRPVKLEDLRSKAKIAFGQSMDLHYTNNELVIPLTTQDDLDKAVELLDRSIHMKSLKILLVINGSTQATNLEPLPSLEDLDNTVFGAERKKRLSIIGPTSRDRSSPPPGYIPDELHQVARNGSFTSINSEGEFIPESMDQMLDPLSLSSPENSGSGSCPSLDSPLDGESYPKSRMPRAQSYPDNHQEFSDYDNPIFEKFGKGGTYPRRYHVSYHHQEYNDGRKTFPRARRTQGTSLRSPVSFSPTDHSLSTSSGSSIFTPEYDDSRIRRRGSDIDNPTLTVMDISPPSRSPRAPTNWRLGKLLGQGAFGRVYLCYDVDTGRELAVKQVQFDPDSPETSKEVNALECEIQLLKNLLHERIVQYYGCLRDPQEKTLSIFMEYMPGGSIKDQLKAYGALTENVTRKYTRQILEGVHYLHSNMIVHRDIKGANILRDSTGNVKLGDFGASKRLQTICLSGTGMKSVTGTPYWMSPEVISGEGYGRKADIWSVACTVVEMLTEKPPWAEFEAMAAIFKIATQPTNPKLPPHVSDYTRDFLKRIFVEAKLRPSADELLRHMFVHYH

Variants of: B1
Conditions: with chip_human STUB1, Q9UNE7
Chain of chip_human STUB1, Q9UNE7 (Q9UNE7 whole entry): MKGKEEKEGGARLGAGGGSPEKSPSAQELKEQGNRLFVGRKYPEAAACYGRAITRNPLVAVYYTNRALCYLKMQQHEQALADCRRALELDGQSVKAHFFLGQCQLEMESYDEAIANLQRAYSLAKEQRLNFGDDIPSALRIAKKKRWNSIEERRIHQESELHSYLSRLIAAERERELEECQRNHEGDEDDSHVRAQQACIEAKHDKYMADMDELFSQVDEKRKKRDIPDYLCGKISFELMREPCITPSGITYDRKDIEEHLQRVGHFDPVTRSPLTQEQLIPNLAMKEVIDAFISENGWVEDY

Variant | effect of a mutation on the interaction
K385M | disrupting interaction

Variants of: B1
Conditions: with chip_human STUB1, Q9UNE7
Remark: another data set of the same source

Variant | effect of a mutation on the interaction
K385M | increasing interaction

Variants of: B1
Conditions: with ubc_human UBC

Variant | effect of a mutation on the interaction
K385M | disrupting interaction
